Data reported in patent publication US10829757B2, “MUB motif is an inhibitor of E2-ubiquitin thioester formation” (Saint Louis University, priority 2016, dated 2020).
No end group written: not given here.

Assays:
AtUBC8 [1] = molecular target: T1, AtUBC8 (Arabidopsis thaliana, UniProt P35131); test: E2~Ub thioester formation assay (immunoblot), AtUBC8; format: biochemical; conditions: for inhibition of AtUBC8~Ub thioester formation: MUB protein 30 μM pre-incubated 15 min, 3 μM E2, immunoblot
T1 construct: 6xHis; made in house; host or cells: E. coli Rosetta 2 (DE3) pLacI
T1 sequence (P35131 whole entry): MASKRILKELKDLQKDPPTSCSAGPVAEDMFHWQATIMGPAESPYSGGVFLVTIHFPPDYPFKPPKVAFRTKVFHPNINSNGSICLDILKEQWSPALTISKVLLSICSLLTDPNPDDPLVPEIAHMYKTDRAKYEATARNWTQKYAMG
Description: E2 Thioester Formation Assays.
(§1) E2˜Ub thioester formation assays were performed at 25° C. using 0.25 μM E1, 3 μM E2, 12 μM Ub, and 50 mM HEPES, pH 8.0, initiated with addition of 1 mM Mg-ATP. When included, 30 μM AtMUB3 was pre-incubated for 15 min at 25° C. Reactions were terminated by the addition of non-reducing or reducing Laemmli buffer. Protein samples were visualized and analyzed as described, above, and quantified using Fuji Film Multi-Gauge software. Relative inhibition efficiency (RIE) was determined by comparing the inhibition efficiency of AtMUB3 mutants to wild type as follows; RIE=[1−(E2˜Ub with AtMUB3 mutant/E2)]/[1−(E2˜Ub with WT AtMUB3/E2)].
Lap-Bar Peptide Inhibition Assay.
Lap-Bar custom peptide ([…] SEQ ID NO: 1, Sigma-Aldrich and Peptide 2.0 Inc.), three scrambled peptides ([…] SEQ ID NO: 4, […] SEQ ID NO: 49, […] SEQ ID NO: 50, Peptide 2.0 Inc.) and amino acid controls were dissolved in 50 mM Tris-HCl, pH 7.5, 300 mM NaCl, and 10% Glycerol.

AtUBC36 = molecular target: T2, AtUBC36 (Arabidopsis thaliana, UniProt Q9FZ48); test: E2~Ub thioester formation assay, AtUBC36; format: biochemical; conditions: group XV E2, AtMUB3 30 μM
T2 construct: 6xHis (N); made in house; host or cells: E. coli Rosetta 2 (DE3) pLacI
T2 sequence (Q9FZ48 1-153): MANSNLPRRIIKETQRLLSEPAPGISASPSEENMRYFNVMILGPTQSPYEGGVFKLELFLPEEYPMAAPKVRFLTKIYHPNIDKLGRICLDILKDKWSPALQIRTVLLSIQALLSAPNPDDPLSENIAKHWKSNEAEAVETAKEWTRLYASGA
Description: as §1
(§2) To assess whether MUB binding regulates E2 function, E2˜Ub thioester formation assays were performed on AtUBC8. […] AtUBC8-Ub peptide linkages, which could complicate the analysis, were observed by 10 minutes, so three minute reactions were used in subsequent assays. Ser22 on the so-called backside binding site (BBS) of AtUBC8 is distant from the active site Cys85, and was previously determined to interfere with MUB-induced E2 localization to the PM (Dowil et al., 2011). E2Ub formation on AtUBC8 Ser22Arg was unaffected by AtMUB3, supporting the requirement of a direct interaction for inhibition (FIG. 1C). Since MUBs interact specifically with Arabidopsis group VI E2s, two additional subfamily members, AtUBC10 and AtUBC28 were tested. […]

AtUBC4 = molecular target: T3, AtUBC4 (Arabidopsis thaliana, UniProt P42748); test: E2~Ub thioester formation assay, AtUBC4; format: biochemical; conditions: group IV E2, AtMUB3 30 μM
T3 construct: 6xHis (N); made in house; host or cells: E. coli Rosetta 2 (DE3) pLacI
T3 sequence (P42748 1-187): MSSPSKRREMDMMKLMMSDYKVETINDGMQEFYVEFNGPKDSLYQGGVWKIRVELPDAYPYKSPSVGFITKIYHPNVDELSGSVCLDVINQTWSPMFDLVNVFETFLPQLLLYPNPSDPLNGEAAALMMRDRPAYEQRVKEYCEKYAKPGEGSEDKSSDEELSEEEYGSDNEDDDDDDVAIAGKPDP
Description: as §1, §2

AtUBC8 [2] = molecular target: T1, AtUBC8; test: Isothermal titration calorimetry; format: binding; conditions: ITC, 8 μM AtUBC8, 110 μM AtMUB3 titrant, 25 mM HEPES pH 7.5, 200 mM NaCl
Description: FIG. 13. AtMUB binds AtUBC8 with submicromolar dissociation constant Kd as measured by isothermal titration calorimetry. Isothermal titration calorimetry (ITC) was performed on 8 μM AtUBC8 with 110 μM AtMUB3 as the titrant using a MicroCal iTC200 (GE). Proteins were purified as described for crystallization and dialyzed extensively against a buffer containing 25 mM HEPES, pH 7.5, 200 mM NaCl, 1 mM TCEP. Data was processed with MicroCal Origin 7 software, and normalized against the dialysis buffer's heat of dilution. This plot is representative of 3 independent experiments, which yielded similar results but were performed at different concentrations of NaCl.

AtUBC8 [3] = molecular target: T1, AtUBC8; test: GST pull-down assay with GST-AtUBC8; format: binding; conditions: immunoblot
Description: (§3) GST-tagged AtUBC8 was induced as described above, and the soluble extract fraction was immobilized on GSH resin (Thermo Scientific) for 20 min, followed by three washes with sonication buffer. Equi-molar His-tagged AtMUB3, AtMUB3 mutants and Ub were incubated separately with AtUBC8 loaded GSH resin for 15 min, washed three times using sonication buffer, and boiled in Laemmli buffer. MUB recovery was determined by immunoblotting and chemiluminescent detection using Fujifilm LAS4000 imaging. For FLAG pull-down assay, His-tagged AtUBC8C85S—O-Ub was generated (Sakata et al., 2010). Flag-tagged AtMUB3 was immobilized on FLAG resin (Thermo Scientific) for 20 min, followed by three washes with sonication buffer. AtUBC8C85S—O-Ub protein or Ub were incubated separately with AtMUB3 loaded FLAG resin for 15 min, washed three times using sonication buffer, and boiled in Laemmli buffer.

Ube2D3 [4] = molecular target: T4, Ube2D3 (Homo sapiens, UniProt P61077); test: E2~Ub thioester formation assay, Ube2D3; format: biochemical; conditions: immunoblot
T4 construct: 6xHis (C); made in house; host or cells: E. coli Rosetta 2 (DE3) pLacI
T4 sequence (P61077 whole entry): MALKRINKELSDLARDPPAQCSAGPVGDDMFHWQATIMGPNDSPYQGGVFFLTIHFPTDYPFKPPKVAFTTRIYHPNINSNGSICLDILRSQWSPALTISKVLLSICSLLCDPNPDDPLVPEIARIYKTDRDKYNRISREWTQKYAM
Description: as §1
To test whether the differences between plant and animal LBLs influence their activity, the inventors compared them in reciprocal inhibition experiments. […] Taken together, MUB inhibition of E2Ub formation is conserved and broadly relevant to organisms that use the ubiquitylation system.

AtUBC8~Ub = molecular target: T5, AtUBC8~Ub (Arabidopsis thaliana, UniProt P35131); test: E2~Ub thioester discharge assay; format: biochemical; conditions: 30 μM MUB, 100 mM lysine
T5 construct: 6xHis; made in house; host or cells: E. coli Rosetta 2 (DE3) pLacI
T5 sequence (P35131 whole entry): as the sequence (P35131 whole entry) above
Description: FIG. 11. […] AtUBC8˜Ub discharging assay is exposed to AtMUB3. The quantification is presented in line graph, top panel (+/−SEM and n=3 for all data points), while the immunoblot (IB) of triple parallel experiments is shown in bottom panel.
AtUBC8 (3 μM) was charged by incubating with 0.25 μM E1, 50 mM HEPES, pH 8.0, 1 mM Mg-ATP and 12 μM K0Ub for 3 min. The E1 was inactivated for 90 seconds with 50×E1 stop buffer (BostonBiochem). Lysine (100 mM) was added to the reaction with or without 30 μM MUB to initiate Ub leaving from the E2 active site.

[5] = molecular target: T6, AtUBC8C85S with Ub linked to the active site through an oxyester bond (Arabidopsis thaliana, UniProt P35131, C85S); test: FLAG pull-down assay with FLAG-AtMUB3; format: binding; conditions: immunoblot
T6 construct: His; made in house; host or cells: E. coli Rosetta 2 (DE3) pLacI
T6 sequence (P35131 whole entry C85S): as the sequence (P35131 whole entry) above, with C85S counted along it
Description: as §3

AtUBC28 = molecular target: T7, AtUBC28 (Arabidopsis thaliana, UniProt Q94F47); test: E2~Ub thioester formation assay, AtUBC28; format: biochemical; conditions: group VI E2, AtMUB3 30 μM
T7 construct: 6xHis (N); made in house; host or cells: E. coli Rosetta 2 (DE3) pLacI
T7 sequence (Q94F47 whole entry): as the sequence (P35131 whole entry) above, with A41S, E42D, I78V, A136S, N140S counted along it
Description: as §1, §2

AtUBC8 Ser22Arg = molecular target: T8, AtUBC8 Ser22Arg (Arabidopsis thaliana, UniProt P35131, S22R); test: E2~Ub thioester formation assay, AtUBC8 Ser22Arg; format: biochemical; conditions: AtMUB3 30 μM, three minute reaction
T8 construct: 6xHis (C); made in house; host or cells: E. coli Rosetta 2 (DE3) pLacI
T8 sequence (P35131 whole entry S22R): as the sequence (P35131 whole entry) above, with S22R counted along it
Description: as §1, §2

AtUBC10 = molecular target: T9, AtUBC10 (Arabidopsis thaliana, UniProt P35133); test: E2~Ub thioester formation assay, AtUBC10; format: biochemical; conditions: group VI E2, AtMUB3 30 μM
T9 construct: 6xHis (N); made in house; host or cells: E. coli Rosetta 2 (DE3) pLacI
T9 sequence (P35133 whole entry): as the sequence (P35131 whole entry) above, with A41S, S46A, R131K, A132N, A136S, N140S counted along it
Description: as §1, §2

Ube2D3 [6] = molecular target: T4, Ube2D3; test: HTRF-FRET E2 activation assay; format: biochemical
Description: FIG. 12. Ube2D3 Activation. Using HTRF-FRET, Ube2D3 activation was monitored with indicated concentrations of HsMUB to establish an inhibition curve. The initial velocity was linear over the first 10 minutes and is represented as percent E2 activated, with 100% velocity taken in the absence of MUB and 0% in the absence of ATP. Plot represents three independent assays+s.e.m., fit to the one-site binding equation. An additional three assays fit to the Hill equation with coefficient n produced nearly identical results with n1.
HTRF-FRET E2 activation assays were conducted using reagents adapted from the E1/E2 Lite kit (LifeSensors, Malvern, Pa.). […] Assays were read kinetically using a BioTek Synergy 4 plate reader equipped with Excitation 340/30 nm, Emission1 495/10 nm, Emission2 520/25 nm bandpass filters, a 400 nm dichroic mirror, and a Xenon flash lamp set to read Terbium and Fluorescein emission with a 100 μs time delay and 200 μs data collection time. The corrected FRET ratio was calculated as described in the TR-FRET manual (Molecular Devices): [(Em520/Em490)−(P*Em490))/Em490]*10000, where P=Em520/Em490 with terbium only, a proportionality factor to correct for terbium donor contribution to acceptor emission. The linear slope of the first 10 minutes of the reaction was determined as the initial velocity. […]

LKLPFGKT [minimal human LBL, human MUB Lap Bar Loop eight-residue peptide]
inhibition of AtUBC8~Ub formation by peptides (AtUBC8 [1]; peptide 5 mM, 3 μM AtUBC8): potent inhibitory activity

AtMUB3: Arabidopsis thaliana Membrane-anchored Ubiquitin-fold protein 3, recombinant, His-tagged (VGQCKTPFGDIAGGVIVMHVV; also: His tag; listed as Arabidopsis thaliana)
inhibition of AtUBC36 activation (AtUBC36): unaffected
inhibition of AtUBC4 activation (AtUBC4): unaffected
dissociation constant Kd (AtUBC8 [2]): submicromolar
binding to GST-AtUBC8 in pull-down (AtUBC8 [3]): efficient bait
inhibition of Ube2D3~Ub formation (Ube2D3 [4]): does not inhibit
inhibition of AtUBC8~Ub thioester formation (AtUBC8 [1]): strongly reduced
Ub discharge from AtUBC8~Ub (AtUBC8~Ub): increase Ub discharging
Ub discharge from AtUBC8~Ub (AtUBC8~Ub; listed as MUB): slightly faster
pull-down of AtUBC8C85S-O-Ub [5]: can pull-down
inhibition of AtUBC28 activation (AtUBC28): strongly inhibited
inhibition of E2~Ub formation on AtUBC8 Ser22Arg (AtUBC8 Ser22Arg): unaffected
inhibition of AtUBC10 activation (AtUBC10): strongly inhibited

B1: AtMUB3 F77A (protein, UniProt Q9SW27 1-115, looked up, variant F77A)
Membrane-anchored …: MPEEESIDIKFRLYDGSDIGPFRYSAASTVDFLKQRVVSDWPKGKTVVPKGINEVKLISSGKILENNKTVGQCKTPAGDIAGGVIVMHVVVQPSLAKSKTEKKVDKAPKAVICTC
inhibition of AtUBC8~Ub thioester formation (AtUBC8 [1]): strong loss of inhibition

B2: HsMUB: human version of MUB, aka Ubl3, SEQ ID NO: 2 (protein, listed as Homo sapiens)
chain: MSSNVPADMINLRLILVSGKTKEFLFSPNDSASDIAKHVYDNWPMDWEEEQVSSPNILRLIYQGRFLHGNVTLGALKLPFGKTTVMHLVARETLPEPNSQGQRNREKTGESNCCVIL
inhibition of Ube2D3~Ub formation (Ube2D3 [4]): potent inhibition
inhibition of AtUBC8~Ub thioester formation (AtUBC8 [1]): potent inhibition
maximal inhibition of Ube2D3 activation (Ube2D3 [6]): up to 70%
